Reference: patent US20230295323A1 (DONGDA BIOSCIENCE INC SUZHOU, published 2023)
Residue numbers refer to the chain shown, from its start. Numbers in names are those of the source.

B1: 10E11VH(G24A/A67V)-hIgG1(3A) (antibody)
heavy: EVQLVQSGAEVKKPGESLRISCKASGYPVSRYWIEWVRQMPGKGLEWIGEILPGSDYANYNEKFKGHVTFSADISISTAYLQWSSLKASDTAMYYCSRKGAYYALDFWGQGTLVTVSSASTKGPSVFPLAPSSKSTSGGTAALGCLVKDYFPEPVTVSWNSGALTSGVHTFPAVLQSSGLYSLSSVVTVPSSSLGTQTYICNVNHKPSNTKVDKKVEPKSCDKTHTCPPCPAPELLGGPSVFLFPPKPKDTLMISRTPEVTCVVVDVSHEDPEVKFNWYVDGVEVHNAKTKPREEQYNATYRVVSVLTVLHQDWLNGKEYKCKVSNKALPAPIAATISKAKGQPREPQVYTLPPSRDELTKNQVSLTCLVKGFYPSDIAVEWESNGQPENNYKTTPPVLDSDGSFFLYSKLTVDKSRWQQGNVFSCSVMHEALHNHYTQKSLSLSPG
light: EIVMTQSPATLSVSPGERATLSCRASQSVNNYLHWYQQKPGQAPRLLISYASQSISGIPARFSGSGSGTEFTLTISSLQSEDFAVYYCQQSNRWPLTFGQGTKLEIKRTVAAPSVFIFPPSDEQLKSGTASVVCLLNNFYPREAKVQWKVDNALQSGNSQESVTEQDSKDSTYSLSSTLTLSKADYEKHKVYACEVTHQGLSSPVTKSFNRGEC
notes: Humanized 10E11 (AV), human IgG1 with the 3A Fc variant; also called 10E11VH(AV)-hIgG1(3A); h10E11(AV)-hIgG1(3A)
B2: 13G12 (murine) (antibody, V domains shown)
VH: QVQLQQPGTELVKPGASVKLSCKASGYTFTSNWMNWVKQRPGHGLEWIGNIYPSNGGTNYNEKFKSKATLTVDKSSSTAYMQLRGLTSEDSAVYYCVRHSNYVGAMDYWGQGTSVTVSS
VL: QIVLTQSPAIMSASPGEKVTMTCGASSSVSYMYWFQQKPGSSPRLLIYDTFNLASGVPVRFSGSESGTSYSLTISRMEAEDAATYYCQHWSSYPPTFGSGTKLEIDR
notes: Mouse hybridoma monoclonal antibody
B3: 3F5 (humanized) -hIgG1 (antibody, V domains shown)
VH: QVQLVQSGAEVKKPGASVKVSCKASGYTFTDHYMHWVRQAPGQGLEWIGDINPNSGGTINNQNFKGRATLTVDKSISTAYMELSRLRSDDTAVYYCARGFSGLAYWGQGTLVTVSS
VL: DIVMTQTPLSSPVTLGQPASISCKSSQSLLDRDGKTYLNWLQQRPGQPPRRLIYLVSILDSGVPDRFSGSGAGTDFTLKISRVEAEDVGVYYCWQGTHFPWTFGQGTKLEIKR
notes: also called h3F5-hIgG1; h3F5-IgG1
B4: h4E4-hIgG1 (antibody, V domains shown)
VH: QVQLVQSGAEVKKPGASVKVSCKASGYTFTDHYMNWVRQAPGQGLEWIGDIDPKNGGTLYNQNFKGRATLTVDKSISTAYMELSRLRSDDTAVYYCARREAMDYWGQGTLVTVSS
VL: DVVMTQSPLSLPVTPGEPASISCRSSQSIVYSNGNTYLNWYLQKPGQSPQLLIYKVSNRFSGVPDRFSGSGSGTDFTLKISRVEAEDVGVYYCFQGSHVPWTFGGGTKVEIKR
notes: Humanized 4E4, human IgG1; also called 4E4 (humanized); h4E4-IgG1
B5: 4E4 (murine) (antibody, V domains shown)
VH: EVQLQQSGPELVKPGASVKISCKASGYTFTDHYMNWVKQSHGKSLEWIGDIDPKNGGTLYNQNFKGRATLTVDKSSSTAYMDLRSLTSEDSAVYYCARREAMDYWGQGTSVTVSS
VL: B4 VL with V3L, S7I, T14S, P15F, E17D, P18Q, Q50K, V88L, V109L
notes: as for B2
B6: h4B11-hIgG1 (antibody, V domains shown)
VH: EVQLVQSGAEVKKPGASVKVSCKASGFTFTDSVLHWVRQAPGQRLEWIGYIHPYNDDTKFHDSFKGRATLTSDKSASTAYMELSSLRSEDTAVYYCSRNDELRVALDYWGQGTLVTVSS
VL: EIVLTQSPATLSLSPGERATLSCRASQSVSTSTYSYVHWYQQKPGQAPRLLIKYASNLESGIPARFSGSGSGTDFTLTISSLEPEDFAVYYCQHSWGNPWTFGGGTKVEIKR
notes: Humanized 4B11, human IgG1; also called 4B11 (humanized); h4B11-IgG1
B7: 9B3 (murine) (antibody, V domains shown)
VH: QVQLQQSGAELMNLGASVKISCKATGYPVSRYWIEWLKQRPGHGPEWIGEILPGSDYANYNEKFKGKATFTADISSNSAYMQLSSLTSEDSAVYYCSRKGAYYALDFWGQGTSVTVSS
VL: DIVMTQSPATLSVTPGERVSLSCRASQSVNNYLHWYQQKSHESPRLLISYVSQSISGISSRFSGSGSGTDFTLIIHSVETEDFGMYFCQQSNRWPLTFGAGTKLELK
notes: as for B2

Legend:
[1] = biological target: T1, human GITR on cells (293T-GITR, Jurkat-hGITR / Jurkat-GITR, Jurkat-GITR-NF-kB, 293T-GITR-NFkb-luc, primary … (human, UniProt Q9Y5U5 26-241)); assay: FACS, blocking of GITR-L (0.25 ug/mL) binding to Jurkat-GITR cells
T1 construct: whole, on cells; also called TNFRSF18; CD357
T1 sequence (looked up): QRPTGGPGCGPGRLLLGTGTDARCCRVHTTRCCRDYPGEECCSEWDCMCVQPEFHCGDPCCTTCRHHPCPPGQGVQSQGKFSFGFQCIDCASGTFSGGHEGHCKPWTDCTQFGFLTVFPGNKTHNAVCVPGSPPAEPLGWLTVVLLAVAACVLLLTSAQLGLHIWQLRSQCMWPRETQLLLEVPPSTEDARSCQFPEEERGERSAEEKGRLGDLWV

human GITR (ECD)-mFc = biological target: T2, human GITR (ECD)-mFc (human, UniProt Q9Y5U5 26-162); assay: ELISA, plate-coated GITR-mFc
T2 construct: extracellular domain; Bought (Dongda Bioscience); also called GITR-mFc; not shown: mouse Fc (mFc)
T2 sequence (looked up): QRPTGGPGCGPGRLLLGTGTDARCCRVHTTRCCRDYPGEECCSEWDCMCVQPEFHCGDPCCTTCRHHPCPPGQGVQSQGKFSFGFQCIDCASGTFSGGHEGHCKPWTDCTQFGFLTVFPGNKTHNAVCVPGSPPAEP
Description: As indicated by the X axis, the concentrations of the test antibodies were 20000 ng/mL, 2000 ng/mL, 200 ng/mL, 20 ng/mL, 2 ng/mL, 0.2 ng/mL, 0.02 ng/mL, 0.002 ng/mL, 0.0002 ng/mL, and 0.00002 ng/mL.

[2] = biological target: T1, human GITR on cells (293T-GITR, …); assay: FACS (MFI), binding to Jurkat-GITR cells
GITR-ECD-hFc = biological target: T3, GITR-ECD-hFc (UniProt Q9Y5U5 26-162, limits assumed); assay: ELISA, plate-coated GITR-ECD-hFc
T3 construct: extracellular domain; not shown: human Fc (hFc)
T3 sequence (looked up): T2 sequence (looked up)
Description: ELISA assay: a 96-well ELISA plate (Corning, Cat No: 9018) was inoculated with GITR-ECD-hFc, left standing overnight at 4° C., and washed 3 times with washing buffer (PBS+0.05% Tween 20), then blocking buffer (PBS+1% BSA (Sigma, Cat No: V90093)) was added, and the 96-well ELISA plate was incubated for 1 hour and washed 3 times; hybridoma supernatant was added, the 96-well ELISA plate was incubated for 1 hour and washed 3 times, 100 µL of goat anti-mouse IgG secondary antibodies (Thermo, Cat No: 31432) diluted at a ratio of 1:10000 was added into each well, and the 96-well ELISA plate was incubated at room temperature for 1 hour and washed 3 times. 100 µL of TMB (Biosubstrate Technologies, Cat No: ES-002) was added into each well and left standing for 3 minutes for color development, then a stop solution (2N H₂SO₄) was added at a dose of 100 µL/well to terminate the reaction, and OD450×signal of each sample was measured with a Tecan Spark microplate reader.

[3] = biological target: T1, human GITR on cells (293T-GITR, …); assay: FACS competition on Jurkat-hGITR cells; competitor biotin-labeled human GITR ligand
Description: FACS assay for the blocking effect of the antibodies: FACS assay was conducted by using BD C6 to determine the blocking effect of the hybridoma antibodies on the binding of biotin-labeled human GITR ligands to Jurkat-hGITR cells. Jurkat-hGITR cells were suspended in FACS buffer (PBS containing 3% FBS). Diluted hybridoma antibodies were added into the cell suspension and the mixture was incubated in a 96-well plate for 1 hour at 4° C. […] After incubation, the 96-well plate was washed 3 times, and mouse anti-biotin PE antibodies (Biolgend, Cat No: 409004) were added and incubated at 4° C. for 0.5 hours. The cells in the 96-well plate were washed 3 times and finally analyzed with BD C6.

| Binder | IC50 [1] | EC50 (read off the curve) (human GITR (ECD)-mFc) | EC50 [2] | EC50 (GITR-ECD-hFc) | IC50 [3] |
| --- | --- | --- | --- | --- | --- |
| B1 | 0.151 µg/mL | ~0.006 µg/mL | 0.102 µg/mL |  |  |
| B2 |  |  |  | 0.0103 µg/mL | 4 µg/mL |
| B3 | 0.101 µg/mL | ~0.02 µg/mL | 0.112 µg/mL |  |  |
| B4 | 0.169 µg/mL | ~0.06 µg/mL | 0.0895 µg/mL |  |  |
| B5 |  |  |  | 0.0017 µg/mL |  |
| B6 | 0.284 µg/mL | ~0.005 µg/mL | 0.132 µg/mL |  |  |
| B7 |  |  |  |  | 0.0413 µg/mL |
